Results taken from the DeepSol protein solubility set.

Test: soluble on expression in E. coli; label from the status in PepcDB or PDB records

Sequence	soluble on expression in E. coli
SASNYPAYMDNYLKEVINQVEEETGYNLLTTGMDVYTNVDQEAQKHLWDIYNTDEYVAYPDDELQVASTIVDVSNGKVIAQLGARHQSSNVSFGINQAVETNRDWGSTMKPITDYAPALEYGVYDSTATIVHDEPYNYPGTNTPVYNWDRGYFGNITLQYALQQSRNVPAVETLNKVGLNRAKTFLNGLGIDYPSIHYSNAISSNTTESDKKYGASSEKMAAAYAAFANGGTYYKPMYIHKVVFSDGSEKEFSNVGTRAMKETTAYMMTDMMKTVLSYGTGQNAYLAWLPQAGKTGTSNYTDEEIENHIKTSQFVAPDELFAGYTRKYSMAVWTGYSNRLTPLVGNGLTVAAKVYRSMMTYLSEGSNPEDWNIPEGLYRNGEFVFKNGAR	soluble
SASSDLEQLCSHVNEKIGNIKKTLSLRNCGQEPTLKTVLNKIGDEIIVINELLNKLELEIQYQEQTNNSLKELCESLEEDYKDIEHLKENVPSHLPQVTVTQSCVKGSDLDPEEPIKVEEPEPVKKPPKEQRSIKEMPFITCDEFNGVPSYMKSRLTYNQINDVIKEINKAVISKYKILHQPKKSMNSVTRNLYHRFIDEETKDTKGRYFIVEADIKEFTTLKADKKFHVLLNILRHCRRLSEVRGGGLTRYVIT	soluble
SATLLHDAVMNPAEVVKQRLQMYNSQHQSAFSCIRTVWRTEGLGAFYRSYTTQLTMNIPFQSIHFITYEFLQEQVNPRRDYNPQSHIISGGLAGALAAAATTPLDVCKTLLNTQENMALSLANVSGRLSGMANAFRTVYQLNGLAGYFKGIQARVIYQMPSTAISWSVYEFFKYILTKRQLENRTLY	soluble
SDAILNYRPEGSEDYYALLGCDELSSVEQILAEFKIRALECHPDKHPENSKAVETFQKLQKAKEILCNAESRARYDHWRRSQMSMPFEQWEALADSVKTSMHWAVRSKKDLMLEGSGQTFTSSVPNKERSEQRETKKGDPDSNPEKMKQKEPKFPEEGISPQNPDSPGLSDLNCGHLRFRWSGDAPSELLRKFRNYEI	soluble
SDPEISEQDEEKKKYTSVCVGREEDIRKSERMTAVVHDREVVIFYHKGEYHAMDIRCYHSGGPLHLGEIEDFNGQSCIVCPWHKYKITLATGEGLYQSINPKDPSAKPKWCSKGVKQRIHTVKVDNGNIYVTLSKEPFKCDSDYYATGEFKVIQSSS	soluble
SDTGVIEGGLNVTLTIRLLMHGKEVGSIIGKKGESVKKMREESGARINISEGNCPERIITLAGPTNAIFKAFAMIIDKLEEDISSSMTNSTAASRPPVTLRLVVPASQCGSLIGKGGCKIKEIRESTGAQVQVAGDMLPNSTERAITIAGIPQSIIECVKQICVVMLETLSQSPPKGVTIPYRPKPSSSPVIFAGGQDRYSTGSDSASFPHTTPSMCLNPDLEGPPLEAYTIQGQYAIPQPDLTKLHQLAMQQSHFPMTHGNTGFSGIESSSPEVKGYWAGLDASAQTTSHELTIPNDLIGCIIGRQGAKINEIRQMSGAQIKIANPVEGSTDRQVTITGSAASISLAQYLINVRLSSETGGMGSS	soluble
SEDNQRSRFRKICVFCGSHSGHREVFSDAAIELGNELVKRKIDLVYGGGSVGLMGLISRRVYEGGLHVLGIIPKALMPIEISGETVGDVRVVADMHERKAAMAQEAEAFIALPGGYGTMEELLEMITWSQLGIHKKTVGLLNVDGYYNNLLALFDTGVEEGFIKPGARNIVVSAPTAKELMEKMEEYTPSHMHVASHESWKVEELGDYPGQENKPQ	soluble
SEEDAGNGGFRKRMRASDEEGKGDSRDGISLDHTIENEEAETKLVASDEMELSIAQILDKIESFTQTVSNLLETGKTMLKELSNEFEERLIMIHKEHVEKWQDEIKELRLLDASNEETTSLLHNARYLIQNPSIEQ	soluble
SESLVVCDVAEDLVEKLRKFRFRKETHNAAIIMKIDKDERLVVLDEELEGVSPDELKDELPERQPRFIVYSYKYQHDDGRVSYPLCFIFSSPVGCKPEQQMMYAGSKNKLVQTAELTKVFEIRNTEDLTEEWLREKLG	soluble
SFAKTGQLFNQTHLEEKKEIAQKAIQFIQEGDSIILDSGSTTTEIAKLLMNYKDLTVITNALNIALILGENHGINLIVTGGEFKAPTLSLTGKMAADSFKDIRANKLFLATAGISSDMKLTYPSLSDLVVKSAMIESASKVYLVADCSKI	not soluble
SFPGDYDNYLLEKEEMLRVEEMQNAEFDKKLAQEEVWIRQGIKARRTRNEGRVRALKKLREERRDRREVQGKVNLNIDDASRSGKIVF	not soluble
SFREQDIYLPIANVARIMKNAIPQTGKIAKDAKECVQECVSEFISFITSEASERCHQEKRKTINGEDILFAMSTLGFDSYVEPLKLYLQKFRE	soluble
SFRMLSSSFEDDPFFADSFLAHRESMRNMMRSFSEPLGRDLLSISDGRGRTHNRRERDDGEDSLTATSFSLVPFGRFGGMHADVNPFQTMDRMMANMRSGIQELQRNFGQLSMDPNGHSFCSSSVMTYSKVGDEPPKVFQASTQTRRAPGGVKETRKAMRDSDSGLERMAVGHHIHDRGHVIRKSKNNKTGDEEVNQEFINMNESDAHAFDDEWQNEVLKYKSIGRSGNTGMRSVGHEHPGSRELKRREKIHRNSAIESGRRSNVFVDKLNVKGSPVKITKK	soluble
SGAISGDSLISLASTGKRVSIKDLLDEKDFEIWAINEQTMKLESAKVSRVFMTGKKLVYILKTRLGRTIKATANHRFLTIDGWKRLDELSLKEHIALPRKLESSSLQLSPEIEKLSQSDISWDSIVSITETGVEEVFDLTVPGPHNFVANDIIVHASI	soluble
SGAVTDDEVIRKRLLIDGDGAGDDRRINLLVKSFIKWCNSGSQEEGYSQYQRMLSTLSQCEFSMGKTLLVYDMNLREMENYEKIYKEIECSIAGAHEKIAECKKQILQAKRIRKNRQEYDALAKVIQHHPDRHETLKELEALGKELEHLSHIKESVEDKLELRRKQFHVLLSTIHELQQTLENDEKLSEVEEAQEASMETDPKP	soluble
SGKGGWLLNFLNHAKNQESVENLDKNGAVKAPSSGFKMPLHYPRYTKEDYEEMEEWRLDLLLSEYGLLAFHDNTLHEKRAFAIDTFIWPHHP	soluble
SGKTSQRKQCDCENPSKPCLSTSIPLRMSSYTFKRPVTKITSHLGNEVRYYQWEETFKKPEQACWQKRLQGLQAYSSAGELLSTSDLAKTLKDLTSTDTVASASDTQAASIDITSVPTLESSSHLANMIPEAGPQILCKEFLVTEQDIINQERKVKIARERLAVALIAHKLASEMETVRGSRKANL	soluble
SGRPFVEMYSEIPEIIHMTEGRELVIPCRVTSPNITVTLKKFPLDTLIPDGKRIIWDSRKGFIISNATYKEIGLLTCEATVNGHLYKTNYLTHRQTNTIIDVQISTPRPVKLLRGHTLVLNCTATTPLNTRVQMTWSYPDEKNKRASVRRRIDQSNSHANIFYSVLTIDKMQNKDKGLYTCRVRSGPSFKSVNTSVHIYDKAFITVKHR	soluble
SGRTWREADINYTSGFRNSDRILYSSDWLIYKTTDHYQTFTKIRCAQVINTFDGVADYLQTYHKLPDNYITKSEAQALGWVASKGNLADVAPGKSIGGDIFSNREGKLPGK	soluble
SGVDRVLVKSEAWADNRLPLTEAELALIATPPEDSDMASLQQQRQEQNYFVRLGSLSERLRNHAYEHSLGKLQNARQKAQETLQQLTSVLGLMESVKQGVDQRLGEGQEKLHQMWLSWNQKTPQDAEKDPAKPEQVEARALSMFRDITQQLQSMCVALGASIQGLPSHVREQAQQARSQVNDLQATFSGIHSFQDLSAGVLAQTRERIARAREALDNTVEYVAQNTPAMWLVGPFAPGITEKTPEGK	soluble
SHMRVLVCGGAGYIGSHFVRALLRDTNHSVVIVDSLVGTHGKSDHVETRENVARKLQQSDGPKPPWADRYAALEVGDVRNEDFLNGVFTRHGPIDAVVHMCAFLAVGESVRDPLKYYDNNVVGILRLLQAMLLHKCDKIIFSSSAAIFGNPTMGSVSTNAEPIDINAKKSPESPYGESKLIAERMIRDCAEAYGIKGICLRYFNACGAHEDGDIGEHYQGSTHLIPIILGRVMSDIAPDQRLTIHEDASTDKRMPIFGTDYPTPDGTCVRDYVHVCDLASAHILALDYVEKLGPNDKSKYFSVFNLGTSRGYSVREVIEVARKTTGHPIPVRECGRREGDPAYLVAASDKAREVLGWKPKYDTLEAIMETSWKFQRTHPNGYASQENGTPGGRTTKL	soluble
SHMSLTPDQIVAALQERGWQAEIVTEFSLLNEMVDVDPQGILKCVDGRGSDNTQFCGPKMPGGIYAIAHNRGVTTLEGLKQITKEVASKGHVPSVHGDHSSDMLGCGFFKLWVTGRFDDMGYPRPQFDADQGAKAVENAGGVIEMHHGSHAEKVVYINLVENKTLEPDEDDQRFIVDGWAAGKFGLDVPKFLIAAAATVEMLGGPKKAKIVIP	soluble
SINNGTFDEPIVNDQANNPDEWFIWQAGDYGISGARVSDYGVRDGYAYITIADPGTDTWHIQFNQWIGLYRGKTYTISFKAKADTPRPINVKILQNHDPWTNYFAQTVNLTADWQTFTFTYTHPDDADEVVQISFELGEGTATTIYFDDVTVSPQ	soluble
SKCIPYSVLLKDLEMRNLRELEDLIIEAVYTDIIQGKLDQRNQLLEVDFCIGRDIRKKDINNIVKTLHEWCDGCEAVLLGIEQQVLRANQYKENHNRTQQQVEAEVTNIKKTLKATASSSAQEMEQQLAERECPPHAEQRQPTKKMSKVKGLVSSRH	soluble
SKILVFGHQNPDSDAIGSSMAYAYLKRQLGVDAQAVALGNPNEETAFVLDYFGIQAPPVVKSAQAEGAKQVILTDHNEFQQSIADIREVEVVEVVDHHRVANFETANPLYMRLEPVGSASSIVYRLYKENGVAIPKEIAGVMLSGLISDTLLLKSPTTHASDPAVAEDLAKIAGVDLQEYGLAMLKAGTNLASKTAAQLVDIDAKTFELNGSQVRVAQVNTVDINEVLERQNEIEEAIKASQAANGYSDFVLMITDILNSNSEILALGNNTDKVEAAFNFTLKNNHAFLAGAVSRKKQVVPQLTESFNG	soluble
SKNPEEAAEGKQRIHLRPGSLRGAAPAKLHLLPCDVLVSRPAPVDRFFTPAVRHDADGLQASFRGRGLRGEEVAVPPGFAGFVMVTEEKGEGLIGKLNFSGDAEDKADEAQEPLERDFDRLIGATGSFSHFTLWGLETVPGPDAKVHRALGWPSLAAAIHAQVPED	soluble
SKTENEEDVKPPESCHAMQLLFKSLEASERAKVEEELKKTKENEFTQRNEHHALRDITHGKVNNYSFGTRQARKLFPHYHPPTWLGNLYLPLRGMPHTGPGCYAAATDWNGLAYNLSKVPTSTKGYAIGARTAVRFKPISKDVTPYPGMYQKVDTLSEKHKKSFAPFNILMPRFRSAAKGDSYPGPGTYNPEMKSVPKVTWPMKFGSPDWSQVPCLEKRTLKAELSADKDFRKHRSRVAYFSLYYQ	soluble
SKVLLVFDFDNTIIDDNSDTWIIQCAPDKKLPIELQDSYQKGLWTEFMGRVFKYLRDEGVKEEELKRAVTSLPFTSGMIELLSFLRMNKDRFDCIIISDSNSIFIDWVLEAAAFHDVFDTVFTNPASFDSTGRLTVRNCHTHACTRCPKNLCKNTVLGEFIDKQLQKGVRYTRIVYIGDGGNDVCPVTFLKKNDVAMPREGYTLHRTLDKMSQNLEPMASSIVVWSSGMEIISHLQFLIQM	soluble
